Positions count from the first letter of the chain named. Names and notes keep the numbering of the source.

What all share (test): SPR
The target of assay [1] is T1, Human TRAIL-R2 ectodomain (residues 58–184), released from the Fc fusion (human, UniProt O14763 58-184, selenomethionine (only in the labelled complex of the derivative crystals)).
T1 construct: also called DR5; TRAIL-R2 receptor; not shown: Fc (human IgG1), C-terminal, cleaved
As to conditions: both partners purified.

Assay [2] has as its target T2, TRAIL (TNF-related apoptosis inducing ligand) ectodomain (UniProt P50591 39-281).
T2 construct: also called TNFSF10; Apo2L
The note with it: one partner purified.

Assay [3] has as its target T3, TRAIL (TNF-related apoptosis inducing ligand) ectodomain (UniProt P50591 39-281).
T3 construct: also called TNFSF10; Apo2L
As to conditions: one partner purified. The source holds these as a separate data set.

B1: UL141-Fc fusion protein (Fc fusion)
chain: DIAEKMWAENYETTSPAPVLVAEGEQVTIPCTVMTHSWPMVSIRARFCRSHDGSDELILDAVKGHRLMNGLQYRLPYATWNFSQLHLGQIFSLTFNVSTDTAGMYECVLRNYSHGLIMQRFVILTQLETLSRPDEPCCTPALGRYSLGDQIWSPTPWRLRNHDCGMYRGFQRNYFYIGRADAEDCWKPACPDEEPDRCWTVIQRYRLPGDCYRSQPHPPKFLPVTPAPPADIDTGMS
A word on the Kd: it is the constant that tells how readily two partners part at equilibrium. One may read the koff as the first-order rate constant of dissociation. Broadly, the kon is the second-order rate constant of association. With B1, in assay [1], the Kd amounted to 21.4 nM, the koff was determined as 0.00564 s⁻¹ and the kon came out at 264000 M⁻¹ s⁻¹.

B2: human TRAIL-R2-Fc D148A (Fc fusion)
chain: QQDLAPQQRAAPQQKRSSPSEGLCPPGHHISEDGRDCISCKYGQDYSTHWNDLLFCLRCTRCDSGEVELSPCTTTRNTVCQCEEGTFREEASPEMCRKCRTGCPRGMVKVGDCTPWSDIECVHKESG
notes: source: Sf9 insect cells, culture supernatant; not shown: Fc (human IgG1), C-terminal, kept
On to B2, for which, in assay [2], the affinity, expressed as Kd, was 4.48 nM; the koff worked out at 3.58e-05 s⁻¹; the on-rate constant (kon) was determined as 8000 M⁻¹ s⁻¹.

B3: human TRAIL-R2-Fc K155A (Fc fusion)
chain: B2 chain with A91D, K98A
notes: as for B2
Regarding B3, in assay [2], binding was characterised by a dissociation constant (Kd) of 39.7 nM, the koff was determined as 0.000138 s⁻¹ and the kon came to 3480 M⁻¹ s⁻¹.

B4: human TRAIL-R2-Fc P150A (Fc fusion)
chain: B2 chain with A91D, P93A
notes: as for B2
In assay [2], B4 returned a Kd of 4.29 nM, a dissociation rate constant (koff) of 9.02e-06 s⁻¹ and an on-rate (kon) of 2100 M⁻¹ s⁻¹.

B5: Human TRAIL-R2-Fc K155A (Fc fusion)
chain: B2 chain with A91D, K98A
notes: source: Sf9, culture supernatant used for SPR; not shown: Fc (human IgG1), C-terminal, kept
B5 displayed a Kd in assay [3] of 40 nM.

B6: human TRAIL-R2-Fc M152A (Fc fusion)
chain: B2 chain with A91D, M95A
notes: as for B2
In assay [2], B6 returned a Kd of 202 nM, a koff of 0.000678 s⁻¹ and a kon of 3350 M⁻¹ s⁻¹.

B7: Human TRAIL-R2-Fc M152A (Fc fusion)
chain: B2 chain with A91D, M95A
notes: also called TRAIL-R2 M152A mutant; source: Sf9, culture supernatant used for SPR; not shown: Fc (human IgG1), C-terminal, kept
B7 yielded a Kd in assay [3] of 202 nM.

(Values after publication PMC3605307 (PLoS Pathogens, 2013).)
